Biological target: T1, LSD2 (Homo sapiens, UniProt Q8NB78)
T1 sequence (Q8NB78 1-822): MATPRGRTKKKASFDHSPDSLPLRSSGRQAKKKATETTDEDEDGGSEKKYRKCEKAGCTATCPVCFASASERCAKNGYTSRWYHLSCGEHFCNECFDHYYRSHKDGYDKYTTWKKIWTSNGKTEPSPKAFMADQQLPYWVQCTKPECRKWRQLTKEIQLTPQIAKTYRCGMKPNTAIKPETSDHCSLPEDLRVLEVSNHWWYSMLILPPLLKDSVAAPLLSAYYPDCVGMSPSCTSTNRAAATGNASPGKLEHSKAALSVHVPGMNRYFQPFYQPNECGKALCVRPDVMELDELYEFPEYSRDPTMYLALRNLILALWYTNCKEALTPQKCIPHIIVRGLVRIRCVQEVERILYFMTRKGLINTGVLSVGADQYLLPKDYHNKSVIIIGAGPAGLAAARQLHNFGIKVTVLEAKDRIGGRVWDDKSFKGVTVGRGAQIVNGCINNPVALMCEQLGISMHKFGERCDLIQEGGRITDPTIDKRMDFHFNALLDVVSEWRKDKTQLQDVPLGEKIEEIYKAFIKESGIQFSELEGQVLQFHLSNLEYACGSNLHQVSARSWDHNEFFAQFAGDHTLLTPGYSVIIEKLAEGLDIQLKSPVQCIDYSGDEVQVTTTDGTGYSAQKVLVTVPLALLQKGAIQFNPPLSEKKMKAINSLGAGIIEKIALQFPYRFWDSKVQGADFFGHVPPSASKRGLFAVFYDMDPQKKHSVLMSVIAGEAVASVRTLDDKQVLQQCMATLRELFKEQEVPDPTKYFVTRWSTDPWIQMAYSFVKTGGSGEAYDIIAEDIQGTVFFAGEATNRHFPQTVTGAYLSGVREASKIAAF
Test: H3K4me2 peptide demethylation assay (MALDI-TOF)
Type: biochemical
Design: 0.15 μM or 1.2 μM purified LSD2 (residues 51-822); His6 (cleaved yes); made in house; host or cells: Sf9 insect cells (baculovirus)
Conditions: longer H3K4me2 peptide residues 1-44
Method: FIGS. 12A-12F depict analysis of LSD2 demethylation activity and mutational analysis. […] Demethylation products were analyzed by MALDI-TOF mass spectrometry. 0.15 μM LSD2 can efficiently demethylate the longer H3K4me2 peptide (1-21), but has no detectable activity on the shorter histone peptide (1-15), demethylation of which requires high concentration (1.2 μM) of LSD2. […] It indicates the importance of histone residue 16-21 to LSD2 enzymatic activity and NPAC cofactor activity, supporting our model that NPAC assists enzyme-substrate interactions by creating a new binding site for H3 L20 in the LSD2-NPAC complex. FIG. 12C depicts LSD2 demethylation and NPAC cofactor activity on longer H3K4me2 peptide (1-44). […] The cofactor activity of wild-type NPAC was readily detected under the same conditions. […] It is noted that no obvious cofactor effect of F217A peptide or linker regions was detected in nucleosome and peptide demethylation assays (FIG. 6E and data not shown). […]
Histone peptides are purchased from Millipore, or custom synthesized. The purity of all peptides are >95% as determined by HPLC and mass spectrometry. […] The products were desalted through a C18 Ziptip (Millipore) and analyzed on a MALDI-TOF micro MX mass spectrometer (ABI 4700, Applied Biosystems). […]

B1: NPAC: full-length human NPAC/GLYR1 (protein ID: Q49A26), recombinant, LSD2 cofactor (protein)
chain: MAAVSLRLGDLVWGKLGRYPPWPGKIVNPPKDLKKPRGKKCFFVKFFGTEDHAWIKVEQLKPYHAHKEEMIKINKGKRFQQAVDAVEEFLRRAKGKDQTSSHNSSDDKNRRNSSEERSRPNSGDEKRKLSLSEGKVKKNMGEGKKRVSSGSSERGSKSPLKRAQEQSPRKRGRPPKDEKDLTIPESSTVKGMMAGPMAAFKWQPTASEPVKDADPHFHHFLLSQTEKPAVCYQAITKKLKICEEETGSTSIQAADSTAVNGSITPTDKKIGFLGLGLMGSGIVSNLLKMGHTVTVWNRTAEKCDLFIQEGARLGRTPAEVVSTCDITFACVSDPKAAKDLVLGPSGVLQGIRPGKCYVDMSTVDADTVTELAQVIVSRGGRFLEAPVSGNQQLSNDGMLVILAAGDRGLYEDCSSCFQAMGKTSFFLGEVGNAAKMMLIVNMVQGSFMATIAEGLTLAHVTGQSQQTLLDILNQGQLASIFLDQKCQNILQGNFKPDFYLKYIQKDLRLAIALGDAVNHPTPMAAAANEVYKRAKALDQSDNDMSAVYRAYIH
  Cofactor activity: stimulation of LSD2 demethylation of H3K4me2 peptide: can robustly stimulate LSD2 demethylation of the longer peptide (1-44)
